Experimental data taken from patent US20090068224A1, “METHOD TO IDENTIFY POLYPEPTIDE TOLL-LIKE RECEPTOR (TLR) LIGANDS” (VAXINNATE CORPORATION, priority 2005, published 2009).

Experiments:
TLR2 [1] = target: T1, TLR2 (Homo sapiens, UniProt O60603); assay: NF-κB-dependent luciferase reporter assay, 293 vs 293.hTLR2 cells; type: cell-based; details: synthetic peptide on parental 293 and 293.hTLR2 cells, four to five hours at 37° C.
Procedure: NF-κB-dependent luciferase reporter assay: Parental 293 cells and 293.hTLR2 cells (see Example 1, above) were incubated with an aliquot of test peptide four to five hours at 37° C. NF-κB-dependent luciferase activity was measured using the Steady-Glo Luciferase Assay System by Promega (E2510), following the manufacturer's instructions. Luminescence was measured on a microplate luminometer (FARCyte, Amersham) and expressed as relative luminescence units (RLU) after subtracting the background reading obtained by exposing cells to the DMEM medium alone.
The biological activity of the TLR2-binding peptides isolated by the screening method was confirmed using the isolated peptides in an NF-κB-dependent reporter gene assay. For this assay, a synthetic monomer of the DPDSG motif (SEQ ID NO: 5), or a concatemerized copy (DPDSG)5, was incubated on parental HEK293 cells containing an NF-κB-dependent luciferase reporter construct (293) and on TLR2-overexpressing HEK293 cells containing an NF-κB-dependent luciferase reporter construct (293.hTLR2, see Example 1, above). Luciferase activity was then measured. […] Thus, the TLR2-binding peptides identified by the screening assay are functional peptide TLR2 ligands.
Target sequence in this assay (O60603 21-784): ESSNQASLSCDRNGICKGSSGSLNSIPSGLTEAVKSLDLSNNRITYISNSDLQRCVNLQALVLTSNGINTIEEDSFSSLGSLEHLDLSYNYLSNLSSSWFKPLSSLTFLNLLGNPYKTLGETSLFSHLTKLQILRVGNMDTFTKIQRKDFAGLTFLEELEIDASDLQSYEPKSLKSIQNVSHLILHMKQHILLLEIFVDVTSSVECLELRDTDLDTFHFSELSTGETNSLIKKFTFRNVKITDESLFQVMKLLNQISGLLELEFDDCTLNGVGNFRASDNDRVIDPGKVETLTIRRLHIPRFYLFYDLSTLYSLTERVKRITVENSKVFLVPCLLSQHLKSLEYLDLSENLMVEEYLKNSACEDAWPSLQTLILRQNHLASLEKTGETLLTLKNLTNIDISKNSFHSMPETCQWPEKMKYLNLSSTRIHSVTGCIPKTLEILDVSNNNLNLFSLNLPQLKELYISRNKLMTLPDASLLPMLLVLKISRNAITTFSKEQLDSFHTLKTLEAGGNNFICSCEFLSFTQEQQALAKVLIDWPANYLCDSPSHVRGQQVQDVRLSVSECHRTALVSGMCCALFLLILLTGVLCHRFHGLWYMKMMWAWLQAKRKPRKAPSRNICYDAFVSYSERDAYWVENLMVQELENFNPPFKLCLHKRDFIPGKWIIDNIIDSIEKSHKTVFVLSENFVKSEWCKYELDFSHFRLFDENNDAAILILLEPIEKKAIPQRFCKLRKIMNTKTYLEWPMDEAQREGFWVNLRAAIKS

TLR2 [2] = target: T1, TLR2; design: host or cells: monocytes and epithelial cells; details: cited from earlier work
Target sequence in this assay (O60603 21-784, species assumed): as the sequence (O60603 21-784) above

[3] = target: human TLR2 (293.hTLR2 cells) (Homo sapiens, UniProt O60603); assay: Biopanning of pentameric random peptide phage display library, sequencing of enriched clones; type: binding; details: percentage of all clones sequenced (n = 109) having given peptide sequence; after 4 rounds of biopanning, TLRlo parental HEK293, TLRhi 293.hTLR2; peptides with identity to known microbial proteins
Procedure: Screening of phage display libraries by biopanning: Phage display libraries are screened for peptide TLR ligands according to the following procedure. The phage display library is incubated on an in vitro cultured monolayer of cells that express minimal amounts of the TLR of interest (TLR^lo) in order to reduce non-specific binding, and then transferred to an in vitro suspension culture of cells expressing the relevant TLR (TLR^hi) to capture phage with binding specificity for the target TLR. After several washes with PBS to remove phage remaining unbound to the TLR^hi cells, TLR^hi cell-bound phages are harvested by centrifugation. The TLR^hi cells with bound phage are incubated with E. coli (strain BLT5615) in order to amplify the phage. This process is repeated three or more times to yield a phage population enriched for high affinity binding to the target TLR.
In each round of biopanning, the harvested phage that are bound to TLR^hi cells can be titred prior to amplification, amplified, and then titred again prior to initiation of the next cycle of biopanning. In this way, it is possible to determine the percent (%) of input phage in each cycle that are ultimately harvested from the TLR^hi cells. This calculation provides a round-by-round measure of enrichment within the phage display library for phage that display TLR-binding peptides.
Construction of random peptide libraries (RPL): A pentameric random peptide phage display library of T7SELECT phage was constructed essentially as described in Example 2. A pair of phosphorylated oligonucleotides with the sequence NNBNNBNNBNNBNNB (where N=A/G/C/T, B=G/C/T) flanked at the 5′ and 3′ ends by EcoRI and HindIII sites, respectively, was synthesized. Equimolar amounts of the oligonucleotides were annealed by heating for 5 min at 90° C. with gradual cooling to 25° C. The double stranded DNA was ligated to T7Select 10-3 bacteriophage vector (Novagen) that had been previously digested with EcoRI and HindIII. The ligation reactions were packaged in vitro and titred using the host E. coli strain […] that was grown in M9TB (Novagen), generating 2.5×10^7 clones, representing about 75% coverage of the library. The recombinant phage were subjected to several rounds of amplification to generate a total library of 1.35×10^12 phage, ensuring representation in excess of 5×10^4 fold for each clone in the library.
Sequencing of phage inserts: Individual phage clones from the enriched pool are isolated via plaque formation in E. coli. The DNA inserts of individual phage are amplified in PCR using the commercially available primers T7SelectUP (5′-GGAGCTGTCGTATTCCAGTC-3′; SEQ ID NO: 37; Novagen, catalog #70005) and T7SelectDOWN (5′-AACCCCTCAAGACCCGTTTA-3′; SEQ ID NO: 38; Novagen, catalog #70006). The PCR product DNA is purified using the QIAquick 96 PCR Purification Kit (Qiagen) and subjected to DNA sequencing using T7SelectUP and T7SelectDOWN primers.
We constructed a pentameric random peptide phage display library in T7 phage. This phage library was then screened by biopanning as described in Example 3. For this screen, the TLR^lo cells were parental HEK293 (TLR2^−) cells, and the TLR^hi cells were HEK293 cells ectopically expressing human TLR2 (293.hTLR2, see Example 1, above). Phage bound to 293.hTLR2 cells were harvested, titred, and amplified prior to initiation of the each cycle of panning. In this way, it was possible to determine the % of input phage in each cycle that was ultimately harvested from the TLR2^hi cells.
After 4 rounds of biopanning, individual phage clones from the enriched pool were isolated via plaque formation in E. coli. […] phage clones were randomly picked for sequencing. Of the 109 individual clones examined the motif DPDSG was predominant (see Tables 6 and 7). […]

human TLR5 = target: T2, human TLR5 (human, UniProt O60602 21-858); assay: fliC-phage incubated on 293 and 293.hTLR5 cells; NF-κB luciferase read-out
T2 construct: Expressed ectopically on HEK293 cells from the bought Invivogen plasmid pUNO-hTLR5 (293.hTLR5); also called hTLR5
T2 sequence (O60602 21-858 limits assumed): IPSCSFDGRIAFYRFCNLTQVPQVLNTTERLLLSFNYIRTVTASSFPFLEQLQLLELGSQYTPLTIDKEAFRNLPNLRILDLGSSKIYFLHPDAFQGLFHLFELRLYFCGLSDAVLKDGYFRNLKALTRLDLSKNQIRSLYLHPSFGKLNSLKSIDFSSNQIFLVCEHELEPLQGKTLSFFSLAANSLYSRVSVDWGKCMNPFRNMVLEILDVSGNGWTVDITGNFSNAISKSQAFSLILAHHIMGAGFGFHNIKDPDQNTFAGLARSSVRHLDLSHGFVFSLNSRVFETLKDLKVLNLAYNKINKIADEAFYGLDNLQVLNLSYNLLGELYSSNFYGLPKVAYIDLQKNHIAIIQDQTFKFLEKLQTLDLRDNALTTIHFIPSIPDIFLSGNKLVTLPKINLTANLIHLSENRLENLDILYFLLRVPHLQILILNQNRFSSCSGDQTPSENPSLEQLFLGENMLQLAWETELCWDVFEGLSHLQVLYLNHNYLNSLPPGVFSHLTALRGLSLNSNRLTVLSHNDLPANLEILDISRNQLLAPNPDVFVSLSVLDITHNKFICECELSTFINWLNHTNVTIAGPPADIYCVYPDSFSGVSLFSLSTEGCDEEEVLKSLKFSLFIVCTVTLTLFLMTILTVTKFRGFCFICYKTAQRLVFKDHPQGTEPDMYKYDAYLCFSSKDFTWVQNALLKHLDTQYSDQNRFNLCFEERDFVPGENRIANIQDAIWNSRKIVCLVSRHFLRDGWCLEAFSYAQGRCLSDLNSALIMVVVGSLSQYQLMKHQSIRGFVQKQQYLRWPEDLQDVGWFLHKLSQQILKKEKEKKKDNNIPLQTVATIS

Chain of human TLR2 (293.hTLR2 cells) (O60603 21-784): as the sequence (O60603 21-784) above

(DPDSG)5 (DPDSGDPDSGDPDSGDPDSGDPDSG) [concatemerized copy of the DPDSG motif, solid phase synthesis]
NF-κB-dependent luciferase reporter gene expression (TLR2 [1]): activated luciferase reporter gene expression in a TLR2-dependent manner

ALTTE (PEPTIDEALTTE) [pentapeptide derived from fimbrial subunit protein, known TLR2 ligand]
activation of monocytes and epithelial cells via TLR2 signaling (TLR2 [2]; Ogawa et al. 1995, 2002, Asai et al. 2001): activate monocytes and epithelial cells via TLR2 signaling

DPDSG [peptide TLR2 ligand; also made as synthetic monomer]
% Abundance [3]: 46.8% | NF-κB-dependent luciferase reporter gene expression (TLR2 [1]): activated luciferase reporter gene expression in a TLR2-dependent manner

GLTTE (PEPTIDEGLTTE) [A to G substitution variant of ALTTE]
antagonism of the wild-type peptide and full-length fimbrial protein (TLR2 [2]; single amino acid substitution (A to G), Ogawa et al. 1995): antagonize the activity of the wild-type peptide and full-length protein

B1: T7 phage displaying the E. coli flagellin (fliC) protein (ligand)
chain: MAQVINTNSLSLITQNNINKNQSALSSSIERLSSGLRINSAKDDAAGQAIANRFTSNIKGLTQAARNANDGISVAQTTEGALSEINNNLQRVRELTVQATTGTNSESDLSSIQDEIKSRLDEIDRVSGQTQFNGVNVLAKNGSMKIQVGANDNQTITIDLKQIDAKTLGLDGFSVKNNDTVTTSAPVTAFGATTTNNIKLTGITLSTEAATDTGGTNPASIEGVYTDNGNDYYAKITGGDNDGKYYAVTVANDGTVTMATGATANATVTDANTTKATTITSGGTPVQIDNTAGSATANLGAVSLVKLQDSKGNDTDTYALKDTNGNLYAADVNETTGAVSVKTITYTDSSGAASSPTAVKLGGDDGKTEVVDIDGKTYDSADLNGGNLQTGLTAGGEALTAVANGKTTDPLKALDDAIASVDKFRSSLGAVQNRLDSAVTNLNNTTTNLSEAQSRIQDADYATEVSNMSKAQIIQQAGNSVLAKANQVPQQVLSLLQG
notes: also called fliC phage; recombinant fliC-phage
binding result (human TLR5): binds
